Assay results as given in patent US20180044415A1 (AbbVie / Abbott, published 2018).
Substitutions are numbered along the chain they refer to.

T1: human DLL3 (immobilized human DLL3 or h293-hDLL3 cells) (human, UniProt Q9NYJ7 27-492, limits assumed)
T1 construct: the sentence says 'immobilized human DLL3 or h293-hDLL3 cells'
T1 sequence: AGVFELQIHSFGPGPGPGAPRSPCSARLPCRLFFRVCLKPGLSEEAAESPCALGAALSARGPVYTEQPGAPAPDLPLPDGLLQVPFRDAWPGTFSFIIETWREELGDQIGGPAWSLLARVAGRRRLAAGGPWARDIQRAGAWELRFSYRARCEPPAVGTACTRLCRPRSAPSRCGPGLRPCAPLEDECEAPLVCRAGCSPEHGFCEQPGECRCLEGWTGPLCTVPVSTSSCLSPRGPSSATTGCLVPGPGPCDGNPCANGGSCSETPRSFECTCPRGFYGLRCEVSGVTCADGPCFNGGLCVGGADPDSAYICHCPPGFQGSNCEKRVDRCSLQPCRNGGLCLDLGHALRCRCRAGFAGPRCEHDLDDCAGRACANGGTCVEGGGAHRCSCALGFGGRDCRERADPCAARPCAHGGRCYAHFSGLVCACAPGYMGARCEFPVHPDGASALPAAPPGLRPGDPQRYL

B1: SC16.88 (antibody, V domains shown)
VH: QVQLQQSGAELARPGASVKLSCKASGYTCTSYWMQWVKQRPGQGLEWIGAIYPGDGDTRYTQKFKGKATLTADKSSSTAYMQLSSLASEDSAVYYCARGRRTEAWFAYWGQGTLVTVSA
VL: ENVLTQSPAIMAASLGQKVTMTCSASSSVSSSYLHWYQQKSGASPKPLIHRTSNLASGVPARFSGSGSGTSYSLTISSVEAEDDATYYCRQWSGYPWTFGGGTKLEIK
notes: murine mAb; variable regions only
B2: SC16.80 (antibody, V domains shown)
VH: EVQLQQSGPELVKPGGSKKISCKASGYSFTGYSMNWVKQSHGKNLEWIGLINPYSGGTIYNQKFKGKATLTVDKSSSTAYMELLSLTSEDSAVYYCARRSDYPLVYWGQGTLVTVSA
VL: ETTVTQSPASLSMAIGEKVTIRCITSTDIDDDMIWYQQKPGEPPKLLISEGNTLRPGVPSRFSSSGYGTDFVFTIENMLSEDVADYYCLKRDDLPYTFGGGTQVEIK
notes: as for B1
B3: SC16.103 (antibody, V domains shown)
VH: QVTLKESGPGILKPSQTLSLTCSFSGFSLSTSGMGIGWIRQPSGKGLEWLAHIWWDDDKYYNPSLKSQLTISKDSSRNQVFLKITSVDTADTATYYCARRGTAYYFDYWGQGTTLTVSS
VL: DIVLTQSPASLAVSLGQRATISCRASKSVSTSGYSYMHWYQQKPGQPPKLLIYLASNLESGVPARFSGSGSGTDFTLNIHPVEEEDAATYYCQHSRELPLTFGAGTKLELK
notes: as for B1
B4: SC16.79 (antibody, V domains shown)
VH: EVQLQQSGPELVKPGASVKISCKTSGYTFTEYTMHWVKQSHGKSLEWIGGINPNNGGTSYNQKFKGKATLTVDKSSSTAYMELRSLTSEDSAVYYCARGPAWFAYWGQGTLVTVSA
VL: DIVMSQSPSSLAVSAGEKVTMSCKSSQSLLNSRTRKNYLAWYQQKPGQSPKLLIYWASTRESGVPDRFTGSGSGTDFTLTISSVQAEDLAVYYCKQSYNLYTFGGGTKLKIK
notes: as for B1
B5: SC16.104 (antibody, V domains shown)
VH: QVQLKESGPDLVQPSQTLSLTCTVSGFSLTFYGVHWVRQPPGKGLEWVGTMGWDDKKYYNSALKSRLSISRDTSKNQVFLKLSSLQTEDTAMYYCTRGGTGFDYWGQGTTLTVSS
VL: QIVLSQSPAILSASPGEKVTMTCRASSSVSYIHWYRQKPGSSPKPWIYATSNLASGVPARFSGSGSGTSYSLTISRVEAEDAATYYCQQWSSNPPTFGAGTKLELK
notes: as for B1
B6: SC16.109 (antibody, V domains shown)
VL: QIVLTQSPAIMSASPGEKVTMTCSASSSVSYMYWYQQKPGSSPRLLIYDTSNLASGVPVRFSGSGSGTSFSLTISRMEAEDTATYYCQEWSGNPLTFGDGTKLELK
V domain: QIQLVQSGPELKKPGETVKISCKASGYTFTNYGMNWVKQAPGKGLKWMGWINTYTGEPAYADDFKGRFAFSLETSASAAYLQINNLKNEDTATFFCANMRPTRGFAYWGQGTLGTVSA
notes: as for B1
B7: SC16.107 (antibody, V domains shown)
VH: EVQLQQSGPELVKPGASVKMSCKASGYTFTNYVMHWVKQKPGQGLEWIGYINPYNDGTKYNEKFKGKATLTSDKSSTTAYMALSSLTSEDSAVYYCAVAYYSNWGFAYWGQGTLVTVSA
VL: DIVMTQSHKFMSTSVGDRVSITCKASQDVNTAVGWYQQKPGQSPKLLIYSASYRYTGVPDRFTGSGSGTDFTFTISSVQAEDLAVYYCQQHYSSPYTFGGGTKVEIK
notes: as for B1
B8: SC16.139 (antibody, V domains shown)
VH: B7 VH
VL: B7 VL with V104L
notes: as for B1
B9: SC16.78 (antibody, V domains shown)
VH: EVKLVESGGGLVKPGGSLKLSCAASGFTFGRYVMSWVRQTPEKKLEWVASITSGGTTYYPDSVKGRFTISRDNARNILYLQMSSLRSEDTAMYYCARVYYHYDDIFAYWGQGTLVTVSA
VL: DIKMTQSPSSMYASLGERVTITCKASQDINSYLSWFQQKPGRSPKTLIYRANRLVDGVPSRFSGSGSGQDYSLTISSLDYEDMGIYYCLQYDEFPFTFGSGTKLEIK
notes: as for B1
B10: SC16.106 (antibody, V domains shown)
VH: QVQLKQSGPGLVAPSQSLFITCTVSGFSLTSYEINWVRQPPGKGLEWLGVIWTGGSTNYNSALISRLSISKDNSKSLVFLKMNSLQTDDTAIYYCVRGVYAMDYWGQGTSVTVSS
VL: B9 VL with R42K, D79E
notes: as for B1
B11: SC16.72 (antibody, V domains shown)
VH: EVQLQQSGPELVKPGASVKMSCKASGYTFTSYVMHWVKQKPGQGLEWIGYINPYNDGTKYNEKFKGKATLTSDKSSSTAYMELSSLTSEDSAVYYCARLRSRAMDYWGQGTSVTVSS
VL: ENVLTQSPAIMSASLGEKVTMSCRASSSVNYMSWYQQKSDASPKLWIYYTSNLAPGVPARFSGSGSGNSYSLTISSMEGEDAATYYCQQFTSSPYTFGGGTKLEIK
notes: as for B1
B12: SC16.73 (antibody, V domains shown)
VH: QVQLQQSGAELMKPGASVKISCKANGYTFSSYWIEWLRQRPGHGLEWIGEILPGSDNSNYNEKFKGKATFTADTSSNTAYMQLSSLTSEESAVYYCTRGLRRDGSYYYVMEHWGQGTSVTVSS
VL: DIQMTQSPSSLSASLGERVSLTCRASQDIGYSLNWLQQEPDGTIKRLIYATSSLDSGVPKRFSGSRSGSDYSLTISSLESEDFVDYYCLQYASSPWTFGGGTKLEIK
notes: as for B1
B13: SC16.84 (antibody, V domains shown)
VH: EVQLQQSGPELVKPGASMKISCKASGYSFTGYTMNWVKQSHGKNLEWIGLINPYNGGTTYNQKFKGKATLTVDKSSSTAYMELLSLTSEDSAVYYCALGYYGNYRRYFDVWGAGTTVTVSS
VL: DIQMTQSPSSLSASLGGKVTITCKASQDIKKYIAWYQHKPGKGPRLLIHYTSTLEPGIPSRFSGSGSGRDYSFSISNLEPEDIATYYCLQYDILWTFGGGTKLEIK
notes: as for B1
B14: SC16.105 (antibody, V domains shown)
VH: QVQLQQPGAELVKPGASVKLSCKASGYTFTSYWMHWVKQRPGQGLEWIGVINPSNGRTNYNEKFKSKATLTVDKSSSTAYMQLSSLTSEDSAVYYCARRRELGTLYAMDYWGQGTSVTVSS
VL: DIVMTQSHKFMSTSVGDRVSITCKASQDVGTAVAWYQQKPGQSPKLLIYWASIRHTGVPDRFTGSGSGTDFTLTISNVQSEDLADYFCQQYSSYPLTFGAGTKLELK
notes: as for B1
B15: SC16.81 (antibody, V domains shown)
VH: QVQLKESGPVLVAPSQSLSITCTVSGFSLTSYGVHWVRQPPGKGLEWLGVIWAGGSTNYNSALMSRLSISKDNSKSQVFLKMNSLQTDDTAMYYCAKQGNFYAMDYWGQGTSVTVSS
VL: QIVLTQSPAIMSASLGERVTLTCTASSSVSSSYLHWYQQKPGSSPKLWIYSTSNLASGVPTRFSGSGSGTSYSLRISSMEAEDAATYYCHQYNRSPLTFGAGTKLELK
notes: as for B1
B16: SC16.101 (antibody, V domains shown)
VL: B15 VL with L21M, T61A, G67E, R75T, S78N, N93H, L97F, A101S, L107I
V domain: QVTLKESGPGILQPSQTLSLTCSFSGFSLSTSGMGVGWIRQPSGKGLEWLAHIWWDDVKRYNPALKSRLTISKDASSSQVFLKIASVDTAETATYYCAHILDRAYYFDYWGQGTTLTVTS
notes: as for B1

These binders were tested against T1, human DLL3 (immobilized human DLL3 or …) (assay: hybridoma screening on immobilized human DLL3 or on h293-hDLL3 cells).

Binding result, binds:
B1
B2
B3
B4
B5
B6
B7
B8
B9
B10
B11
B12
B13
B14
B15
B16
